± gives the standard deviation of the averaged measurements.
test system: Saccharomyces cerevisiae; experiment: protein stability index of tFT-peptide fusion (C-terminal peptide) (PSI (0-1 scale)); higher = more stable (slower turnover); settings: genetic background: wild type; temperature: 30 C
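Note: PSI is a weighted mean of sequencing reads over stability bins, variants kept only with over 10 reads, mCherry proximal and sfGFP distal, peptide attached via GGGS linker.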

Sequence | protein stability index
PHPPPAPDAPCV | 0.683 ± 0.036
PHPPPLPPLPSP | 0.721 ± 0.053
PHPPPPRPPPRS | 0.642 ± 0.067
PHPSATPTPVPP | 0.7001 ± 0.0017
PHPSPGAALFAN | 0.643 ± 0.019
PHPTLATPPRRR | 0.667 ± 0.096
PHPTTPPAPRPR | 0.728 ± 0.0095
PHRAPPRETRLG | 0.837 ± 0.015
PHSKADISQIGG | 0.653 ± 0.0072
PHTEPVIVACSG | 0.601 ± 0.033
PHTPSRPLSPAP | 0.713 ± 0.063
PILFLGGSMGER | 0.676 ± 0.011
PIPPPPPPPHSP | 0.779 ± 0.043
PIPPPPPPPPDP | 0.652 ± 0.017
PIPPSTRSLHPL | 0.668 ± 0.027
PIQNHRFLPIVL | 0.713 ± 0.036
PIRAITQRSDGG | 0.682 ± 0.045
PISIAVPCVLPP | 0.6654 ± 0.00093
PISSYPPLPAPR | 0.718 ± 0.06
PIYQTYSRHSYL | 0.683 ± 0.0089
PKLAELKKISDR | 0.68 ± 0.063
PKLSKLLQHSNV | 0.658 ± 0.048
PLAPPFSPPPPP | 0.645 ± 0.0082

Sequence | protein stability index
PLAPPPPSSPPV | 0.675 ± 0.083
PLCFSLFFPFRP | 0.657 ± 0.0099
PLCPPPPTSPPP | 0.666 ± 0.031
PLCPPYPPGRVP | 0.6841 ± 0.0021
PLCRPARPRHHS | 0.7256 ± 0.0015
PLCSPALHGPPP | 0.736 ± 0.033
PLCSPPSPASNL | 0.714 ± 0.067
PLDTPYMAYNSD | 0.71 ± 0.033
PLECHTGVLGRL | 0.709 ± 0.0086
PLEKASMTLWGR | 0.691 ± 0.05
PLFAYCLIFPML | 0.533 ± 0.018
PLFGLQTPTLHR | 0.712 ± 0.057
PLFHLYRSSFPF | 0.721 ± 0.029
PLFPRPFPPPRS | 0.717 ± 0.0091
PLFSLVSLLLPI | 0.628 ± 0.036
PLHLPPPFSPRP | 0.7333 ± 0.0063
PLHPLTLPHLPT | 0.665 ± 0.092
PLHSRPTRPKLE | 0.71 ± 0.092
PLIASPQPPFPT | 0.6692 ± 0.0036
PLKKLTRIIPKL | 0.747 ± 0.1
PLLALANSPLYR | 0.6708 ± 0.005
PLLCPASIHVTL | 0.679 ± 0.046
PLLEGRRRKSGG | 0.635 ± 0.02

Sequence | protein stability index
PLLFGGGGVSVL | 0.70247 ± 0.00036
PLLFPSSPLPPS | 0.63 ± 0.036
PLLGLFTRYFDT | 0.7 ± 0.088
PLLLLLPALPPL | 0.679 ± 0.026
PLLPILTSPPRR | 0.71 ± 0.029
PLLPPLSPPLPS | 0.7 ± 0.0078
PLLPPPLFSLLR | 0.681 ± 0.015
PLLPPPPSLRSP | 0.747 ± 0.1
PLLPRPPPLPPP | 0.703 ± 0.055
PLLRPTRLLPET | 0.699 ± 0.093
PLLTPLCSVSHS | 0.689 ± 0.0072
PLNALLHSNPDK | 0.711 ± 0.1
PLPCSPRLRLSF | 0.646 ± 0.036
PLPLFPLPPVAP | 0.66 ± 0.012
PLPLPPLPPPLP | 0.656 ± 0.021
PLPLPPPPHCLS | 0.702 ± 0.027
PLPLSSSLHSQR | 0.702 ± 0.0084
PLPPAARPPSAL | 0.729 ± 0.015
PLPPAPPPPPPP | 0.728 ± 0.029
PLPPLPLAPSLP | 0.708 ± 0.065
PLPPPFLHLPPP | 0.683 ± 0.036
PLPPPGRPPLLP | 0.639 ± 0.12
PLPPPPFSVSPP | 0.724 ± 0.012

Sequence | protein stability index
PLPPPPLPPLPP | 0.702 ± 0.028
PLPPPPRPRLPL | 0.764 ± 0.047
PLPPPPSPLPHF | 0.692 ± 0.013
PLPPPPVPPTPS | 0.606 ± 0.012
PLPPPVPPPPPP | 0.66 ± 0.017
PLPPRLPSPPSS | 0.742 ± 0.044
PLPPRPAPPSSS | 0.681 ± 0.015
PLPPRPPSPPPR | 0.699 ± 0.037
PLPPSPYPSPSP | 0.661 ± 0.028
PLPRLTRPSPPR | 0.681 ± 0.067
PLPRPPPPPPPS | 0.7 ± 0.048
PLPSAPVPPSAS | 0.71002 ± 0.0003
PLQPRVLPSPRR | 0.688 ± 0.0011
PLRISPPPAPHP | 0.7251 ± 0.0025
PLRSFSLRPFPL | 0.775 ± 0.06
PLRVPPPPCSRS | 0.722 ± 0.1
PLSCSPPLLSPS | 0.678 ± 0.0089
PLSLAPPPLPPY | 0.671 ± 0.061
PLSLFPSSQCWS | 0.771 ± 0.038
PLSPPPLPFPLL | 0.589 ± 0.0018
PLSPSAAPSAPS | 0.737 ± 0.1
PLSTCLAARCPL | 0.725 ± 0.085
PLSTFSLSSFTV | 0.691 ± 0.045

Sequence | protein stability index
PLTFGLGPVNLP | 0.683 ± 0.054
PLTPCPSATPAY | 0.648 ± 0.021
PLTPVRCSICSV | 0.64 ± 0.037
PLTRPTDNNPSN | 0.774 ± 0.081
PLVFFAGLFLVD | 0.509 ± 0.041
PLVSGMLTSHLA | 0.6613 ± 0.0014
PLVSPPPLPHRP | 0.69 ± 0.02
PLYLAYKDTLLS | 0.69 ± 0.035
PLYPPLPTSLSS | 0.769 ± 0.027
PLYPPPVNIPPT | 0.81 ± 0.067
PLYSPPPHRYLL | 0.653 ± 0.019
PMLGMSTLGDRF | 0.657 ± 0.038
PMNVSDPRKVGR | 0.556 ± 0.037
PNCAPLTAPRRR | 0.7159 ± 0.0069
PNCTLVDSCWSI | 0.699 ± 0.022
PNPPNSSNPPSP | 0.7013 ± 0.0031
PNSPRCAIASPL | 0.702 ± 0.046
PPAAPPPPPLPP | 0.735 ± 0.039
PPAAPSPPPPRP | 0.719 ± 0.012
PPADKRILQQIR | 0.692 ± 0.039
PPAHPPPRLHPP | 0.541 ± 0.018
PPALHPPPLPPR | 0.646 ± 0.028
PPALPLFPNAAG | 0.709 ± 0.049

Sequence | protein stability index
PPALPPCRSRLV | 0.72 ± 0.049
PPALRPSPPLSP | 0.698 ± 0.065
PPAPFLLNPVPP | 0.727 ± 0.015
PPAPLALPRLPS | 0.715 ± 0.061
PPAPLLLPLSRP | 0.735 ± 0.0098
PPAPPAFPRFGT | 0.703 ± 0.0051
PPAPPHALPPGP | 0.671 ± 0.033
PPAPPPADLGPP | 0.644 ± 0.093
PPAPPPAPPHSS | 0.633 ± 0.061
PPAPPPHPPLPP | 0.706 ± 0.043
PPAPPPPPIRPP | 0.696 ± 0.033
PPARHSPIFPVH | 0.786 ± 0.022
PPASPPAYVTHP | 0.685 ± 0.049
PPASSARPLLFL | 0.6664 ± 0.0053
PPCPPPPAPPPP | 0.687 ± 0.044
PPCVSGHPLRYS | 0.727 ± 0.045
PPDGRPQEVWVP | 0.72 ± 0.037
PPDHLTHPHIVN | 0.693 ± 0.013
PPDLPPPPPPPT | 0.7 ± 0.055
PPDPNCLPKQTS | 0.752 ± 0.058
PPDPSTLSTSPS | 0.689 ± 0.042
PPEPPLSSLRRP | 0.674 ± 0.073
PPFASPSPLPPP | 0.7006 ± 0.0069

Sequence | protein stability index
PPFFSHDWYLRV | 0.695 ± 0.076
PPFLPASHPAPS | 0.824 ± 0.065
PPFPPPLLPPSP | 0.732 ± 0.036
PPFSSRTRPPLC | 0.67 ± 0.023
PPFVSPQRQRLV | 0.669 ± 0.019
PPGAQPRSPSPL | 0.771 ± 0.08
PPGPAPPHAASH | 0.6421 ± 0.0029
PPGPPIAPLFPP | 0.657 ± 0.0071
PPGPSVPPHRPP | 0.754 ± 0.049
PPHAPLPPPTPP | 0.634 ± 0.037
PPHAPTRTTSGP | 0.6388 ± 0.0013
PPHLCPTSLTTL | 0.642 ± 0.026
PPHNTPLAPSQY | 0.659 ± 0.0094
PPHPDTSPSFPP | 0.6787 ± 0.0022
PPHPGALPPAAA | 0.631 ± 0.035
PPHPPLPARPSP | 0.681 ± 0.041
PPHPPPPLLPAP | 0.715 ± 0.051
PPHPSPPTPPPH | 0.687 ± 0.017
PPIPPALLLVSP | 0.633 ± 0.0095
PPIVHPGSLRSA | 0.673 ± 0.024
PPIVPFGSPVVL | 0.728 ± 0.026
PPKEEPRWATGD | 0.693 ± 0.043

From the supplement of paper PMC10724198
